Data on one protein can be found in US20040053235A1 (published 2004).

This series deals with the molecule itself. Kind of series: size exclusion chromatography on Superdex 200: activity peaks at 42.4 and 87.5 kD, each a single 42.2 kD polypeptide on SDS-PAGE (self-association). The protocol: Further purification of the enzyme activity was carried out by Ni2+ affinity chromatography (which binds the poly-histidine tag of the recombinant protein) and size exclusion chromatography. Nickel affinity chromatography was carried out by passing an E. coli extract, prepared as described above, through a column containing NTA-agarose (Novagen “His-Bind Resin”). 5 ml of the resin were washed with 30 ml H₂O, charged with 30 ml NiSO₄ washed with 30 ml H₂O and equilibrated with 30 ml 50 mM Na-phosphate pH 8, 300 mM NaCl. The E. coli pellet was suspended in 50 mM Na-phosphate pH 8, 300 mM NaCl and sonicated. The suspension was centrifuged again (9000 g, 20 min). The supernatant was stirred with the Ni-resin on ice for 1 hour. The suspension was transferred into a column. After settling down the column was washed with 250 ml 50 mM Na-phosphate pH 6 containing 300 mM NaCl an d 10% glycerol. Ni-bound protein was eluted with 500 mM imidazole/50 mM Na-phosphate at pH 6 containing 300 mM NaCl. Fractions were collected and assayed for L-galactose dehydrogenase activity. […] This sample was then subjected to size exclusion chromatography on a Superdex 200 column (Amersham-Pharmacia Biotech) using 25 mM tris-HCl buffer pH 7 containing 150 mM NaCl as eluent Fractions (1 ml) were collected and two peaks of activity corresponding to molecular weights of 42.4 and 87.5 kD were detected. […]
For orientation: SEC sorts molecules by how far they enter the pores of the column.

B1: recombinant Arabidopsis thaliana L-galactose dehydrogenase (expressed in E. coli from pRSETB-LgalDH, with poly-histidine tag) (enzyme)
chain: MTKIELRALGNTGLKVSAVGFGASPLGSVFGPVAEDDAVATVREAFRLGINFFDTSPYYGGTLSEKMLGKGLKALQVPRSDYIVATKCGRYKEGFDFSAERVRKSIDESLERLQLDYVDILHCHDIEFGSLDQIVSETIPALQKLKQEGKTRFIGITGLPLDIFTYVLDRVPPGTVDVILSYCHYGVNDSTLLDLLPYLKSKGVGVISASPLAMGLLTEQGPPEWHPASPELKSASKAAVAHCKSKGKKITKLALQYSLANKEISSVLVGMSSVSQVEENVAAVTELESLGMDQETLSEVEAILEPVKNLTWPSGIHQN
notes: The entry describes one subunit; also called recombinant L-galDH; not shown: poly-histidine tag and vector-encoded residues from pRSETB
B1: the binding result is “binds”.
